“And” between values parts separate entries of the source, which are not always exact repeats. Equal values may be shown once.
Molecular target: AIM2 (Absent In Melanoma 2), full length, without MBP tag, labeled with Alexa Fluor 488 (human) (UniProt O14862)
Experiment: single-molecule confocal fluorescence microscopy with optical tweezers; Alexa 488-labeled protein (~0.2-14 nM) in the protein channel, on a single biotinylated lambda-phage dsDNA (48.5 kbp) tethered between two optically trapped streptavidin beads; 2D scans, movies and kymographs; oligomer size from photon counts (11 per fluorophore); 20 mM HEPES pH 7.5, 160 mM KCl, 1 mM BME, 0.1% Triton X-100, 5% glycerol; room temperature

## AIM2 (Absent In Melanoma 2), full length, without MBP tag, labeled with Alexa Fluor 488 (from UniProt O14862 1-343) (natural protein)
  oligomer growth rate (highest observed): < 28 molecules/s
  oligomer growth rate (oligomers of 1-20 molecules, low nanomolar): 0.2 to 7 molecules/s
  oligomer growth rate at 0.5 nM AIM2: 7.4 s⁻¹
  oligomer growth rate at 1 nM AIM2 (bottom kymograph, dimer to hexamer): 94 s⁻¹
  oligomer growth rate at 1 nM AIM2 (middle kymograph, starting from a monomer): 5.8 s⁻¹
  oligomer growth rate at 2 nM AIM2: 10.7 s⁻¹
  oligomer growth rate at 2 nM AIM2 (4 to 6 molecules): 11.4 s⁻¹
  oligomer growth rate at 10 nM AIM2 (4 to 11 molecules): 25.3 s⁻¹
  oligomer growth rate at 10 nM AIM2 (top kymograph): 302 s⁻¹
  oligomer growth rate at 13.5 nM AIM2: 34 s⁻¹
  stoichiometry N: < 25 molecules and 13 molecules to 15 molecules (2×)
